14 molecules from patent publication US20260098059A1 (ENDOMET BIOSCIENCES, published 2026) can be followed below.

“And” between values parts separate entries of the source, which are not always exact repeats. Equal entries are not always repeated.

Test [1] has as its target T1, β-catenin (UniProt P35222 134-665, limits assumed, biotinylated in the SPR and plate assays).
T1 construct: also called beta catenin; biotinylated β-catenin
T1 sequence (looked up): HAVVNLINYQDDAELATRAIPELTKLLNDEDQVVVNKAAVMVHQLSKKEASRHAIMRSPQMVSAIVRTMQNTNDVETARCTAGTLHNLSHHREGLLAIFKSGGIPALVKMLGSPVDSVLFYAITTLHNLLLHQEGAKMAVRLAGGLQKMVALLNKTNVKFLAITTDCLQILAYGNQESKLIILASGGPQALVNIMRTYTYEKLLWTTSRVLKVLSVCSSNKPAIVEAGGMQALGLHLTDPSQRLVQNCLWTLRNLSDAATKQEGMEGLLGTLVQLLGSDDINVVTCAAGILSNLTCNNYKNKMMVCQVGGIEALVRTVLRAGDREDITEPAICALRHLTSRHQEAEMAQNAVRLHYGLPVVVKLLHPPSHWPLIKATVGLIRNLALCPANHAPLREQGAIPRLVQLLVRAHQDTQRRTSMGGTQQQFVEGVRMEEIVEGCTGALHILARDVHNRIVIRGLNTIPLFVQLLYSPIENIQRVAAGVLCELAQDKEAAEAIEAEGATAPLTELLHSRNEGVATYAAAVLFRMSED
The test is described as follows: SPR (Biacore). How it is done: (§1) Biotinylated protein (beta catenin) was immobilized on a high-affinity streptavidin (SA) sensor chip (GE). Peptide at increasing concentrations was flowed over in HBS EP+ buffer at room temperature according to manufacturer's instructions. The maximum binding capacity of the surface (response at saturation) was calculated using the Biacore® system (GE) instructions and binding was measured at each concentration as a data point. The binding levels were determined over a range of analyte concentrations of at least from 20% to 80% saturation of the surface. On rates, off rates, and KD were calculated using Biacore® Insight Evaluation Software software (GE).
(SPR reads the build-up and loss of mass on a sensor chip optically.)

Test [2] addresses T1, β-catenin. The test is described as follows: competitive FP. The gist of the method: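 Competitive fluorescence polarization with inhibitor peptide serially diluted from 10 nM to 30 uM; polarization read at 470 nm excitation, 520 nm emission. Experiments performed three times.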
Test [3] deals with T1, β-catenin. The test is described as follows: cell-based or functional assay.
Test [4] concerns the target T1, β-catenin. The test is described as follows: SPR (Biacore); SPR (Biacore), direct binding. How it is done: as §1

B1: SEQ ID NO: 266 (H2N-Tcf4(7-51)-K-CONH2) (peptide)
peptide: H-GGGDDLGANDELISFKDEGEQEEKSSENSSAERDLADVKSSLVNEK-NH2
notes: Tcf4 residues 7-51 with an added C-terminal K, amidated
On to B1, for which the figures for the equilibrium dissociation constant (Kd) in the test with β-catenin [1] and with β-catenin [2] were 58.2 nM and not above 400 nM, respectively.

B2: SEQ ID NO: 30 (peptide)
peptide: KMAESILDEHVQRVWG
HELM: PEPTIDE1{K.M.[meA].E.S.I.L.D.E.H.V.Q.R.V.W.G}$PEPTIDE1,PEPTIDE1,1:R3-16:R2$$$V2.0
SMILES: CC[C@H](C)[C@@H]1NC(=O)[C@H](CO)NC(=O)[C@H](CCC(=O)O)NC(=O)[C@H](C)N(C)C(=O)[C@H](CCSC)NC(=O)[C@@H](N)CCCCNC(=O)CNC(=O)[C@H](Cc2c[nH]c3ccccc23)NC(=O)[C@H](C(C)C)NC(=O)[C@H](CCCNC(=N)N)NC(=O)[C@H](CCC(N)=O)NC(=O)[C@H](C(C)C)NC(=O)[C@H](Cc2c[nH]cn2)NC(=O)[C@H](CCC(=O)O)NC(=O)[C@H](CC(=O)O)NC(=O)[C@H](CC(C)C)NC1=O
The molecule B2 displayed a Kd with β-catenin [1] of 123 nM. In addition, in the test with β-catenin [3], the “Wnt Reporter EC50” value was more than 30000 nM.

B3: SEQ ID NO: 18 (peptide)
peptide: KAESILDEHVQRVWG
HELM: PEPTIDE1{K.[meA].E.S.I.L.D.E.H.V.Q.R.V.W.G}$PEPTIDE1,PEPTIDE1,1:R3-15:R2$$$V2.0
SMILES: CC[C@H](C)[C@@H]1NC(=O)[C@H](CO)NC(=O)[C@H](CCC(=O)O)NC(=O)[C@H](C)N(C)C(=O)[C@@H](N)CCCCNC(=O)CNC(=O)[C@H](Cc2c[nH]c3ccccc23)NC(=O)[C@H](C(C)C)NC(=O)[C@H](CCCNC(=N)N)NC(=O)[C@H](CCC(N)=O)NC(=O)[C@H](C(C)C)NC(=O)[C@H](Cc2c[nH]cn2)NC(=O)[C@H](CCC(=O)O)NC(=O)[C@H](CC(=O)O)NC(=O)[C@H](CC(C)C)NC1=O
Consider B3, for which, in the test with β-catenin [3], the “Wnt Reporter EC50” value was more than 30000 nM. Besides, the Kd in the test with β-catenin [2] was more than 30000 nM; with β-catenin [4], 76 nM.

B4: SEQ ID NO: 19 (peptide)
peptide: KAQSILDEHVQRVWG
HELM: PEPTIDE1{K.[meA].Q.S.I.L.D.E.H.V.Q.R.V.W.G}$PEPTIDE1,PEPTIDE1,1:R3-15:R2$$$V2.0
SMILES: CC[C@H](C)[C@@H]1NC(=O)[C@H](CO)NC(=O)[C@H](CCC(N)=O)NC(=O)[C@H](C)N(C)C(=O)[C@@H](N)CCCCNC(=O)CNC(=O)[C@H](Cc2c[nH]c3ccccc23)NC(=O)[C@H](C(C)C)NC(=O)[C@H](CCCNC(=N)N)NC(=O)[C@H](CCC(N)=O)NC(=O)[C@H](C(C)C)NC(=O)[C@H](Cc2c[nH]cn2)NC(=O)[C@H](CCC(=O)O)NC(=O)[C@H](CC(=O)O)NC(=O)[C@H](CC(C)C)NC1=O
In the case of B4, the “Wnt Reporter EC50” value with β-catenin [3] was more than 30000 nM. For the same molecule, the Kd is more than 30000 nM in the test with β-catenin [2] and 59 nM with β-catenin [4].

B5: SEQ ID NO: 15 (peptide)
peptide: H-MIRMWFLISFWG-OH
In the test with β-catenin [1], B5 returned an equilibrium dissociation constant (Kd) of 130 nM. Also, the “Wnt Reporter EC50” value with β-catenin [3] is not above 7500 nM.

B6: SEQ ID NO: 20 (peptide)
peptide: KWAQSILNQHVQRVWG
HELM: PEPTIDE1{K.W.[meA].Q.S.I.L.N.Q.H.V.Q.R.V.W.G}$PEPTIDE1,PEPTIDE1,1:R3-16:R2$$$V2.0
SMILES: CC[C@H](C)[C@@H]1NC(=O)[C@H](CO)NC(=O)[C@H](CCC(N)=O)NC(=O)[C@H](C)N(C)C(=O)[C@H](Cc2c[nH]c3ccccc23)NC(=O)[C@@H](N)CCCCNC(=O)CNC(=O)[C@H](Cc2c[nH]c3ccccc23)NC(=O)[C@H](C(C)C)NC(=O)[C@H](CCCNC(=N)N)NC(=O)[C@H](CCC(N)=O)NC(=O)[C@H](C(C)C)NC(=O)[C@H](Cc2c[nH]cn2)NC(=O)[C@H](CCC(N)=O)NC(=O)[C@H](CC(N)=O)NC(=O)[C@H](CC(C)C)NC1=O
As for B6, in the test with β-catenin [3], the “Wnt Reporter EC50” value was more than 30000 nM. The Kd was more than 30000 nM with β-catenin [2] and 48 nM with β-catenin [4].

B7: SEQ ID NO: 14 (peptide)
peptide: H-MSRMWFLISFWMG-OH
B7: in the test with β-catenin [3], the “Wnt Reporter EC50” value is not above 7500 nM. Moreover, the Kd with β-catenin [2] was more than 30000 nM; with β-catenin [4], 250 nM.

B8: SEQ ID NO: 16 (peptide)
peptide: MSRMWFLISFWAG
HELM: PEPTIDE1{M.S.R.M.W.F.L.I.S.F.W.[meA].G}$$$$V2.0
SMILES: CC[C@H](C)[C@H](NC(=O)[C@H](CC(C)C)NC(=O)[C@H](Cc1ccccc1)NC(=O)[C@H](Cc1c[nH]c2ccccc12)NC(=O)[C@H](CCSC)NC(=O)[C@H](CCCNC(=N)N)NC(=O)[C@H](CO)NC(=O)[C@@H](N)CCSC)C(=O)N[C@@H](CO)C(=O)N[C@@H](Cc1ccccc1)C(=O)N[C@@H](Cc1c[nH]c2ccccc12)C(=O)N(C)[C@@H](C)C(=O)NCC(=O)O
Take B8: in the test with β-catenin [3], the “Wnt Reporter EC50” value is > 15000 nM and ≤ 22500 nM. Moreover, the results for the Kd with β-catenin [2] and in the test with β-catenin [4] were more than 30000 nM and 120 nM, respectively.

B9: SEQ ID NO: 21 (peptide)
peptide: KMIRMWFLISFWG
modifications: cyclo-H2N-K(Aoc*)MIRM-NmeW-FLISFWG*
Consider B9, for which, in the test with β-catenin [3], the “Wnt Reporter EC50” value was more than 30000 nM. Besides, the Kd with β-catenin [2] is more than 30000 nM; with β-catenin [4] it was 337 nM.

B10: SEQ ID NO: 17 (peptide)
peptide: H-MWFLISFWG-OH
With B10, the Kd in the test with β-catenin [1] is 314 nM; with β-catenin [2], > 400 nM and ≤ 1000 nM. Further, the “Wnt Reporter EC50” value with β-catenin [3] is not above 7500 nM.

B11: SEQ ID NO: 24 (peptide)
peptide: KMSRMWFLISFWRG
HELM: PEPTIDE1{K.M.S.R.M.W.F.L.I.S.F.W.R.G}$PEPTIDE1,PEPTIDE1,1:R3-14:R2$$$V2.0
SMILES: CC[C@H](C)[C@@H]1NC(=O)[C@H](CC(C)C)NC(=O)[C@H](Cc2ccccc2)NC(=O)[C@H](Cc2c[nH]c3ccccc23)NC(=O)[C@H](CCSC)NC(=O)[C@H](CCCNC(=N)N)NC(=O)[C@H](CO)NC(=O)[C@H](CCSC)NC(=O)[C@@H](N)CCCCNC(=O)CNC(=O)[C@H](CCCNC(=N)N)NC(=O)[C@H](Cc2c[nH]c3ccccc23)NC(=O)[C@H](Cc2ccccc2)NC(=O)[C@H](CO)NC1=O
Turning to B11, the Kd is 270 nM with β-catenin [1] and not above 400 nM in the test with β-catenin [2]. The “Wnt Reporter EC50” value in the test with β-catenin [3] was more than 30000 nM.

B12: SEQ ID NO: 23 (peptide)
peptide: H-MWESILDEHMQRVWRG-OH
Take B12: the values for the Kd with β-catenin [1] and in the test with β-catenin [2] were 1590 nM and not above 400 nM, respectively. Also, the “Wnt Reporter EC50” value in the test with β-catenin [3] is more than 30000 nM.

B13: SEQ ID NO: 29 (peptide)
peptide: KMPLAISWFEHIG
HELM: PEPTIDE1{K.M.P.L.[meA].I.S.W.F.E.H.I.G}$PEPTIDE1,PEPTIDE1,1:R3-13:R2$$$V2.0
SMILES: CC[C@H](C)[C@@H]1NC(=O)[C@H](Cc2c[nH]cn2)NC(=O)[C@H](CCC(=O)O)NC(=O)[C@H](Cc2ccccc2)NC(=O)[C@H](Cc2c[nH]c3ccccc23)NC(=O)[C@H](CO)NC(=O)[C@H]([C@@H](C)CC)NC(=O)[C@H](C)N(C)C(=O)[C@H](CC(C)C)NC(=O)[C@@H]2CCCN2C(=O)[C@H](CCSC)NC(=O)[C@@H](N)CCCCNC(=O)CNC1=O
In the case of B13, the Kd was 1030 nM with β-catenin [1]; > 400 nM and ≤ 1000 nM in the test with β-catenin [2]. Also, the “Wnt Reporter EC50” value with β-catenin [3] was more than 30000 nM.

B14: SEQ ID NO: 270 (Ac-Bcl9(347-381)-AβAβK-CONH2) (peptide)
peptide: NPDGLSQEQLEHRERSLQTLRDIQRMLFPDEKEFTAAK
HELM: PEPTIDE1{[ac].N.P.D.G.L.S.Q.E.Q.L.E.H.R.E.R.S.L.Q.T.L.R.D.I.Q.R.M.L.F.P.D.E.K.E.F.T.[bAla].[bAla].K.[am]}$$$$V2.0
SMILES: CC[C@H](C)[C@H](NC(=O)[C@H](CC(=O)O)NC(=O)[C@H](CCCNC(=N)N)NC(=O)[C@H](CC(C)C)NC(=O)[C@@H](NC(=O)[C@H](CCC(N)=O)NC(=O)[C@H](CC(C)C)NC(=O)[C@H](CO)NC(=O)[C@H](CCCNC(=N)N)NC(=O)[C@H](CCC(=O)O)NC(=O)[C@H](CCCNC(=N)N)NC(=O)[C@H](Cc1c[nH]cn1)NC(=O)[C@H](CCC(=O)O)NC(=O)[C@H](CC(C)C)NC(=O)[C@H](CCC(N)=O)NC(=O)[C@H](CCC(=O)O)NC(=O)[C@H](CCC(N)=O)NC(=O)[C@H](CO)NC(=O)[C@H](CC(C)C)NC(=O)CNC(=O)[C@H](CC(=O)O)NC(=O)[C@@H]1CCCN1C(=O)[C@H](CC(N)=O)NC(C)=O)[C@@H](C)O)C(=O)N[C@@H](CCC(N)=O)C(=O)N[C@@H](CCCNC(=N)N)C(=O)N[C@@H](CCSC)C(=O)N[C@@H](CC(C)C)C(=O)N[C@@H](Cc1ccccc1)C(=O)N1CCC[C@H]1C(=O)N[C@@H](CC(=O)O)C(=O)N[C@@H](CCC(=O)O)C(=O)N[C@@H](CCCCN)C(=O)N[C@@H](CCC(=O)O)C(=O)N[C@@H](Cc1ccccc1)C(=O)N[C@H](C(=O)NCCC(=O)NCCC(=O)N[C@@H](CCCCN)C(N)=O)[C@@H](C)O
notes: Bcl9 residues 347-381, acetylated, with beta-Ala-beta-Ala-K added, amidated
On to B14, for which the Kd was more than 30000 nM with β-catenin [2] and 546 nM in the test with β-catenin [4].

In general, Kd refers to the free concentration of one partner at which half of the binding sites on the other are occupied at equilibrium, for simple one-to-one binding.
